Measurements: article PMC6007489 (Nucleic Acids Research, 2018)

T1: His–rad1R218A–Rad10 (S. cerevisiae, UniProt P06777 1-1100; P06838 1-210, R218A)
T1 sequence (looked up) 1: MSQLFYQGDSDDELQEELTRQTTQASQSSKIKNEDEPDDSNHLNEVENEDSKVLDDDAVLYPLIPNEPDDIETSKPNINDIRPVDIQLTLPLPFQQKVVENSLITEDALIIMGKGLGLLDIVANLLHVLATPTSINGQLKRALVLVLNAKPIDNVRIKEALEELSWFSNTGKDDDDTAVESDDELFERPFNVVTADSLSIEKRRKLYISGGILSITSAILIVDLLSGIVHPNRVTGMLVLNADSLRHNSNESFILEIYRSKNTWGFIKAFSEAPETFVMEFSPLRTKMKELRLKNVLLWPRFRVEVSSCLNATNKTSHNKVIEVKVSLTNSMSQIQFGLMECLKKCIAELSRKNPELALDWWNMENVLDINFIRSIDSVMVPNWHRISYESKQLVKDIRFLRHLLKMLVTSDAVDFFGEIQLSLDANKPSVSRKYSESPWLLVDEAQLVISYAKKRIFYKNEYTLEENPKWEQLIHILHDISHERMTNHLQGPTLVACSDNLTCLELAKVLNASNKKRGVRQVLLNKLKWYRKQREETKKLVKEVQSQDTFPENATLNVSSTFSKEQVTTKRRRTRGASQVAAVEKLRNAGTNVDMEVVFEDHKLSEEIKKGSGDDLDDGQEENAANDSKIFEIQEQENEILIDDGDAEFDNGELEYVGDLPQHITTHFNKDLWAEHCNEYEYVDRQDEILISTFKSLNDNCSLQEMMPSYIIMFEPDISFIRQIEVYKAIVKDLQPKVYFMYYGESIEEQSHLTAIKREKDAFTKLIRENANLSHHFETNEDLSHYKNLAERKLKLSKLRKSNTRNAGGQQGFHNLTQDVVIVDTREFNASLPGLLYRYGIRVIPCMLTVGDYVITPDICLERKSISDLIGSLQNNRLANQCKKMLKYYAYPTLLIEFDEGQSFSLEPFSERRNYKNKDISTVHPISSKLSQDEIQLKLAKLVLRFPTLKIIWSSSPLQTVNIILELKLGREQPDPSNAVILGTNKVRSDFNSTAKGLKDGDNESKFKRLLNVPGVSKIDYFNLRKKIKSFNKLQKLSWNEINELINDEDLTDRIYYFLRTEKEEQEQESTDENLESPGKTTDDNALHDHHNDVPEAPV
T1 sequence (looked up) 2: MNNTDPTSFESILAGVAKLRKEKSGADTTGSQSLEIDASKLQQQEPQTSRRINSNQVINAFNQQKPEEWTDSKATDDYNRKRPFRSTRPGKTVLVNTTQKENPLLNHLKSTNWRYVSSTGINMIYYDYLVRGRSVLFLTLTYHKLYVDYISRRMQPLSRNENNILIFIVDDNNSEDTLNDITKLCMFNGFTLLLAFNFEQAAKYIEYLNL

B1: Msh2–Msh3 (complex, S. cerevisiae)
chain 1: MSSTRPELKFSDVSEERNFYKKYTGLPKKPLKTIRLVDKGDYYTVIGSDAIFVADSVYHTQSVLKNCQLDPVTAKNFHEPTKYVTVSLQVLATLLKLCLLDLGYKVEIYDKGWKLIKSASPGNIEQVNELMNMNIDSSIIIASLKVQWNSQDGNCIIGVAFIDTTAYKVGMLDIVDNEVYSNLESFLIQLGVKECLVQDLTSNSNSNAEMQKVINVIDRCGCVVTLLKNSEFSEKDVELDLTKLLGDDLALSLPQKYSKLSMGACNALIGYLQLLSEQDQVGKYELVEHKLKEFMKLDASAIKALNLFPQGPQNPFGSNNLAVSGFTSAGNSGKVTSLFQLLNHCKTNAGVRLLNEWLKQPLTNIDEINKRHDLVDYLIDQIELRQMLTSEYLPMIPDIRRLTKKLNKRGNLEDVLKIYQFSKRIPEIVQVFTSFLEDDSPTEPVNELVRSVWLAPLSHHVEPLSKFEEMVETTVDLDAYEENNEFMIKVEFNEELGKIRSKLDTLRDEIHSIHLDSAEDLGFDPDKKLKLENHHLHGWCMRLTRNDAKELRKHKKYIELSTVKAGIFFSTKQLKSIANETNILQKEYDKQQSALVREIINITLTYTPVFEKLSLVLAHLDVIASFAHTSSYAPIPYIRPKLHPMDSERRTHLISSRHPVLEMQDDISFISNDVTLESGKGDFLIITGPNMGGKSTYIRQVGVISLMAQIGCFVPCEEAEIAIVDAILCRVGAGDSQLKGVSTFMVEILETASILKNASKNSLIIVDELGRGTSTYDGFGLAWAIAEHIASKIGCFALFATHFHELTELSEKLPNVKNMHVVAHIEKNLKEQKHDDEDITLLYKVEPGISDQSFGIHVAEVVQFPEKIVKMAKRKANELDDLKTNNEDLKKAKLSLQEVNEGNIRLKALLKEWIRKVKEEGLHDPSKITEEASQHKIQELLRAIANEPEKENDNYLKYIKALLL
chain 2: MAGQPTISRFFKKAVKSELTHKQEQEVAVGNGAGSESICLDTDEEDNLSSVASTTVTNDSFPLKGSVSSKNSKNSEKTSGTSTTFNDIDFAKKLDRIMKRRSDENVEAEDDEEEGEEDFVKKKARKSPTAKLTPLDKQVKDLKMHHRDKVLVIRVGYKYKCFAEDAVTVSRILHIKLVPGKLTIDESNPQDCNHRQFAYCSFPDVRLNVHLERLVHHNLKVAVVEQAETSAIKKHDPGASKSSVFERKISNVFTKATFGVNSTFVLRGKRILGDTNSIWALSRDVHQGKVAKYSLISVNLNNGEVVYDEFEEPNLADEKLQIRIKYLQPIEVLVNTDDLPLHVAKFFKDISCPLIHKQEYDLEDHVVQAIKVMNEKIQLSPSLIRLVSKLYSHMVEYNNEQVMLIPSIYSPFASKIHMLLDPNSLQSLDIFTHDGGKGSLFWLLDHTRTSFGLRMLREWILKPLVDVHQIEERLDAIECITSEINNSIFFESLNQMLNHTPDLLRTLNRIMYGTTSRKEVYFYLKQITSFVDHFKMHQSYLSEHFKSSDGRIGKQSPLLFRLFSELNELLSTTQLPHFLTMINVSAVMEKNSDKQVMDFFNLNNYDCSEGIIKIQRESESVRSQLKEELAEIRKYLKRPYLNFRDEVDYLIEVKNSQIKDLPDDWIKVNNTKMVSRFTTPRTQKLTQKLEYYKDLLIRESELQYKEFLNKITAEYTELRKITLNLAQYDCILSLAATSCNVNYVRPTFVNGQQAIIAKNARNPIIESLDVHYVPNDIMMSPENGKINIITGPNMGGKSSYIRQVALLTIMAQIGSFVPAEEIRLSIFENVLTRIGAHDDIINGDSTFKVEMLDILHILKNCNKRSLLLLDEVGRGTGTHDGIAISYALIKYFSELSDCPLILFTTHFPMLGEIKSPLIRNYHMDYVEEQKTGEDWMSVIFLYKLKKGLTYNSYGMNVAKLARLDKDIINRAFSISEELRKESINEDALKLFSSLKRILKSDNITATDKLAKLLSLDIH

Key:
Msh2–Msh3 = target: B1; assay: far-Western, overlay or dot blot
His–rad1R218A–Rad10 = target: T1, His–rad1R218A–Rad10; assay: co-IP

fold lower binding than His–Rad1–Rad10 (Msh2–Msh3) | fold enhancement of the interaction by non-specific DNA (His–rad1R218A–Rad10) | Binder
~4 fold |  | His–rad1R203A,K205A–Rad10 (complex, S. cerevisiae) chain 1: MSQLFYQGDSDDELQEELTRQTTQASQSSKIKNEDEPDDSNHLNEVENEDSKVLDDDAVLYPLIPNEPDDIETSKPNINDIRPVDIQLTLPLPFQQKVVENSLITEDALIIMGKGLGLLDIVANLLHVLATPTSINGQLKRALVLVLNAKPIDNVRIKEALEELSWFSNTGKDDDDTAVESDDELFERPFNVVTADSLSIEKARALYISGGILSITSRILIVDLLSGIVHPNRVTGMLVLNADSLRHNSNESFILEIYRSKNTWGFIKAFSEAPETFVMEFSPLRTKMKELRLKNVLLWPRFRVEVSSCLNATNKTSHNKVIEVKVSLTNSMSQIQFGLMECLKKCIAELSRKNPELALDWWNMENVLDINFIRSIDSVMVPNWHRISYESKQLVKDIRFLRHLLKMLVTSDAVDFFGEIQLSLDANKPSVSRKYSESPWLLVDEAQLVISYAKKRIFYKNEYTLEENPKWEQLIHILHDISHERMTNHLQGPTLVACSDNLTCLELAKVLNASNKKRGVRQVLLNKLKWYRKQREETKKLVKEVQSQDTFPENATLNVSSTFSKEQVTTKRRRTRGASQVAAVEKLRNAGTNVDMEVVFEDHKLSEEIKKGSGDDLDDGQEENAANDSKIFEIQEQENEILIDDGDAEFDNGELEYVGDLPQHITTHFNKDLWAEHCNEYEYVDRQDEILISTFKSLNDNCSLQEMMPSYIIMFEPDISFIRQIEVYKAIVKDLQPKVYFMYYGESIEEQSHLTAIKREKDAFTKLIRENANLSHHFETNEDLSHYKNLAERKLKLSKLRKSNTRNAGGQQGFHNLTQDVVIVDTREFNASLPGLLYRYGIRVIPCMLTVGDYVITPDICLERKSISDLIGSLQNNRLANQCKKMLKYYAYPTLLIEFDEGQSFSLEPFSERRNYKNKDISTVHPISSKLSQDEIQLKLAKLVLRFPTLKIIWSSSPLQTVNIILELKLGREQPDPSNAVILGTNKVRSDFNSTAKGLKDGDNESKFKRLLNVPGVSKIDYFNLRKKIKSFNKLQKLSWNEINELINDEDLTDRIYYFLRTEKEEQEQESTDENLESPGKTTDDNALHDHHNDVPEAPV chain 2: MNNTDPTSFESILAGVAKLRKEKSGADTTGSQSLEIDASKLQQQEPQTSRRINSNQVINAFNQQKPEEWTDSKATDDYNRKRPFRSTRPGKTVLVNTTQKENPLLNHLKSTNWRYVSSTGINMIYYDYLVRGRSVLFLTLTYHKLYVDYISRRMQPLSRNENNILIFIVDDNNSEDTLNDITKLCMFNGFTLLLAFNFEQAAKYIEYLNL
 | ~2 fold | B1
